From publication PMC8871475, “An Antibody-Aptamer-Hybrid Lateral Flow Assay for Detection of CXCL9 in Antibody-Mediated Rejection after Kidney Transplantation”

Target: T1, CXCL9 (CXC-motif chemokine ligand 9) (UniProt Q07325 23-125)
T1 sequence: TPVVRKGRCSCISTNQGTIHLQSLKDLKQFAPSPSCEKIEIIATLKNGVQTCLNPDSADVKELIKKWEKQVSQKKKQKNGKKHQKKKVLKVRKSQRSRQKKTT
Experiment: lateral flow assay (antibody-aptamer sandwich); capture antibody A in test zone; LOD 10 pg/mL CXCL9 in binding buffer, 45 min; LFA binding buffer (PBS-based, urine-like): 138 mM NaCl, 5 mM KCl, 8.1 mM Na2HPO4, 1.5 mM KH2PO4, 1 mM MgCl2, 1 mM CaCl2, 170 mM urea, 7 mM ammonium acetate, 0.25% BSA, 0.1 mg/mL salmon sperm DNA, pH 6.5; temperature not stated; Kd conditions not given
Conditions: protein: commercial; label: gold nanoparticle (5')

B1: AuNP-G123 (ssDNA)
DNA: CACGACGCAAGGGACCACAGGGAGGGAGGGTGGGCAAAGGGCCCTAAGTCCGTAACAAAAACACAGCACGACACCGCAGAGGCA
modifications: 5' C6-disulfide linker and hexaethylene glycol spacer
  binding result: binds
